Test results reported in US20150344570A1 (published 2015).

T1: FcγRIIa R (FcγRIIa allotype with Arg at position 131), extracellular domain with C-terminal His tag (human, UniProt P12318 34-217)
T1 construct: extracellular domain; made in FreeStyle293 cells; analyte in the Biacore assay; also called FcγRIIa type R; 2aR
T1 sequence (looked up): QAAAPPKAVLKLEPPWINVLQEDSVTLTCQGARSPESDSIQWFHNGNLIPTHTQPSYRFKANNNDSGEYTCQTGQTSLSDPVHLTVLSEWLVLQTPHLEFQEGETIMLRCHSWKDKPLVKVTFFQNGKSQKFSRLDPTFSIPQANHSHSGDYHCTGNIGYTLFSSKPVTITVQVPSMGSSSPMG

T2: FcγRIIb, extracellular domain with C-terminal His tag (human, UniProt P31994 43-217)
T2 construct: extracellular domain; made in FreeStyle293 cells; analyte in the Biacore assay; also called 2b; FcgRIIb
T2 sequence (looked up): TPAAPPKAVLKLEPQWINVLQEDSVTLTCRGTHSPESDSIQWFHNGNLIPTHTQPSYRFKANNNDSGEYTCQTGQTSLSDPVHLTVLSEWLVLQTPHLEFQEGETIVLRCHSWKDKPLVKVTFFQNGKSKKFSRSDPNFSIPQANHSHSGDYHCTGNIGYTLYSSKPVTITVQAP

B1: GpH7-A5/GpH7-B3 variant G236_02A/GpL16-k0 (antibody, human IgG1, kappa)
heavy 1: not shown
heavy 2: not shown
light: DIVMTQSPLSLPVTPGEPASISCQASESLVHSNRNTYLHWYLQKPGQSPQLLIYKVSNRFSGVPDRFSGSGSGTDFTLKISRVEAEDVGVYYCSQNTHVPPTFGQGTKVEIERTVAAPSVFIFPPSDEQLKSGTASVVCLLNNFYPREAKVQWKVDNALQSGNSQESVTEQDSKDSTYSLSSTLTLSKADYEKHKVYACEVTHQGLSSPVTKSFNRGEC
notes: heterodimerized IgG1, mutation in one H chain only; also called He Ab
B2: GpH7-A5/GpH7-B3 variant L234_12R/GpL16-k0 (antibody, human IgG1, kappa)
heavy 1: not shown
heavy 2: not shown
light: B1 light
notes: as for B1
B3: GpH7-A5/GpH7-B3 variant G236_06M/GpL16-k0 (antibody, human IgG1, kappa)
heavy 1: not shown
heavy 2: not shown
light: B1 light
notes: as for B1
B4: GpH7-A5/GpH7-B3 variant G236_05P/GpL16-k0 (antibody, human IgG1, kappa)
heavy 1: not shown
heavy 2: not shown
light: B1 light
notes: as for B1
B5: GpH7-A5/GpH7-B3 variant L234_05P/GpL16-k0 (antibody, human IgG1, kappa)
heavy 1: not shown
heavy 2: not shown
light: B1 light
notes: as for B1
B6: GpH7-A5/GpH7-B3 variant G236_07I/GpL16-k0 (antibody, human IgG1, kappa)
heavy 1: not shown
heavy 2: not shown
light: B1 light
notes: as for B1
B7: GpH7-A5/GpH7-B3 variant L234_01G/GpL16-k0 (antibody, human IgG1, kappa)
heavy 1: not shown
heavy 2: not shown
light: B1 light
notes: as for B1
B8: GpH7-A5/GpH7-B3 variant G236_08L/GpL16-k0 (antibody, human IgG1, kappa)
heavy 1: not shown
heavy 2: not shown
light: B1 light
notes: as for B1
B9: GpH7-A5/GpH7-B3 variant G236_12R/GpL16-k0 (antibody, human IgG1, kappa)
heavy 1: not shown
heavy 2: not shown
light: B1 light
notes: as for B1
B10: GpH7-A5/GpH7-B3 variant G236_13S/GpL16-k0 (antibody, human IgG1, kappa)
heavy 1: not shown
heavy 2: not shown
light: B1 light
notes: as for B1
B11: GpH7-A5/GpH7-B3 variant G236_03V/GpL16-k0 (antibody, human IgG1, kappa)
heavy 1: not shown
heavy 2: not shown
light: B1 light
notes: as for B1
B12: GpH7-A5/GpH7-B3 variant G236_04F/GpL16-k0 (antibody, human IgG1, kappa)
heavy 1: not shown
heavy 2: not shown
light: B1 light
notes: as for B1
B13: GpH7-A5/GpH7-B3 variant L234_02A/GpL16-k0 (antibody, human IgG1, kappa)
heavy 1: not shown
heavy 2: not shown
light: B1 light
notes: as for B1
B14: GpH7-A5/GpH7-B3 variant L235_12R/GpL16-k0 (antibody, human IgG1, kappa)
heavy 1: not shown
heavy 2: not shown
light: B1 light
notes: as for B1
B15: GpH7-A5/GpH7-B3 variant L234_11K/GpL16-k0 (antibody, human IgG1, kappa)
heavy 1: not shown
heavy 2: not shown
light: B1 light
notes: as for B1
B16: GpH7-A5/GpH7-B3 variant G236_14T/GpL16-k0 (antibody, human IgG1, kappa)
heavy 1: not shown
heavy 2: not shown
light: B1 light
notes: as for B1

Molecular target: T1, FcγRIIa R (FcγRIIa allotype with Arg at …)
Experiment: SPR (Biacore); He/Con_2aR divided by He/Con_2b, binding to FcγRIIa R against binding to FcγRIIb
Procedure: The heterodimerized antibodies He Abs in which one of the H chains was introduced with an alteration were assayed for their binding activities to each activating FcγR and inhibitory FcγR according to the method described in Example 4. […] The activating FcγRs in FIGS. 26, 27, 28, and 29 are FcγRIa, FcγRIIa (R), FcγRIIa (H), and FcγRIIIa, respectively.
Analysis of interaction between objective antibody and the FcγR was carried out using Biacore T100 (GE Healthcare). HBS-EP+ (GE Healthcare) was used as the running buffer, and the measurement temperature was set to 25° C. Chips produced by immobilizing the antigen peptide by the amine coupling method to a Series S Sencor Chip CM5 (GE Healthcare), or alternatively, chips produced by allowing preliminarily biotinylated antigen peptides to interact with and immobilize onto a Series S Sensor Chip SA (certified) (GE Healthcare) were used. Antibodies of interest were captured onto an antigen peptide-immobilized chip, and allowed to interact to each FcγR diluted with running buffer. To regenerate and repeatedly use the chip, the antibodies captured on the chip were washed off by reacting 10 mM glycine-HCl, pH 1.5.

He_2aR/2b (IIaR/IIb) [ratio]	Binder
1.51	B1
1.58	B2
1.26	B3
2.52	B4
1.23	B5
2.81	B6
1.23	B7
2.45	B8
3.55	B9
1.41	B10
2.6	B11
1.35	B12
1.23	B13
1.69	B14
1.66	B15
1.78	B16

Molecular target: T2, FcγRIIb, extracellular domain with …
Experiment: SPR (Biacore), antibody captured, FcγR analyte; vs GpH7-A5/GpH7-B3/GpL16-k0 = 100

He/Con_2b	Binder
96.5 relative (HeCon Ab = 100)	B1
18.9 relative (HeCon Ab = 100)	B2
45.5 relative (HeCon Ab = 100)	B3
19 relative (HeCon Ab = 100)	B4
72.9 relative (HeCon Ab = 100)	B5
31 relative (HeCon Ab = 100)	B6
50.7 relative (HeCon Ab = 100)	B7
26.8 relative (HeCon Ab = 100)	B8
6.8 relative (HeCon Ab = 100)	B9
96.7 relative (HeCon Ab = 100)	B10
35.3 relative (HeCon Ab = 100)	B11
39.3 relative (HeCon Ab = 100)	B12
64.9 relative (HeCon Ab = 100)	B13
16.2 relative (HeCon Ab = 100)	B15
57.8 relative (HeCon Ab = 100)	B16

Molecular target: T1, FcγRIIa R (FcγRIIa allotype with Arg at …)
Experiment: as above

He/Con_2aR	Binder
146 relative (HeCon Ab = 100)	B1
29.9 relative (HeCon Ab = 100)	B2
57.3 relative (HeCon Ab = 100)	B3
47.9 relative (HeCon Ab = 100)	B4
89.6 relative (HeCon Ab = 100)	B5
87.1 relative (HeCon Ab = 100)	B6
62.3 relative (HeCon Ab = 100)	B7
65.8 relative (HeCon Ab = 100)	B8
24.1 relative (HeCon Ab = 100)	B9
136 relative (HeCon Ab = 100)	B10
91.6 relative (HeCon Ab = 100)	B11
53.1 relative (HeCon Ab = 100)	B12
79.6 relative (HeCon Ab = 100)	B13
16.2 relative (HeCon Ab = 100)	B14
26.8 relative (HeCon Ab = 100)	B15
103 relative (HeCon Ab = 100)	B16
